# Experimental data published in the Human Domainome abundance scans (Beltran et al. 2025).
# ± gives the uncertainty stated by the source.
# B1: Far upstream element-binding protein 3, residues 75 to 150; numbered along this chain, Q96I24 (parent)
# chain: RTVITEEFKVPDKMVGFIIGRGGEQISRIQAESGCKIQIASESSGIPERPCVLTGTPESIEQAKRLLGQIVDRCRN
# B2: Storkhead-box protein 2, residues 64 to 141; numbered along this chain, Q9P2F5 (parent)
# chain: SPISQSQFIPLGEILCLAISAMNSARKPVTQEALMEHLTTCFPGVPTPSQEILRHTLNTLVRERKIYPTPDGYFIVTP
# Variants of: B1
# Assay: abundance fitness (aPCA) (normalised: wild type 0, dead -1); higher = more abundant; growth selection in yeast, the domain comes from the species named
# Settings: Homo sapiens
row,Variant,abundance fitness
1,S44H,-0.013 ± 0.066
2,T2Y,-0.069 ± 0.06
3,E58D,-0.054 ± 0.062
4,E58H,-0.226 ± 0.087
5,E58N,-0.091 ± 0.093
6,Q38D,-0.092 ± 0.047
7,Q62I,-0.043 ± 0.037
8,R1D,0.022 ± 0.076
9,R1I,-0.016 ± 0.073
10,R1S,-0.042 ± 0.041
11,V3Y,-0.053 ± 0.069
12,A31F,-0.127 ± 0.055
13,R21W,-0.187 ± 0.036
14,R21I,-0.107 ± 0.07
15,L66P,-0.899 ± 0.07
16,K9N,-0.109 ± 0.063
17,R49Q,-0.081 ± 0.041
18,S59A,-0.045 ± 0.032
19,E42G,-0.013 ± 0.028
20,G68S,-0.065 ± 0.035
21,V71K,-0.132 ± 0.044
22,I39F,-0.114 ± 0.052
23,Q69W,-0.283 ± 0.038
24,G45A,-0.041 ± 0.029
25,G45W,-0.15 ± 0.032

row,Variant,abundance fitness
1,K13Q,-0.017 ± 0.038
2,P50R,-0.06 ± 0.026
3,P50F,-0.119 ± 0.052
4,E61T,-0.009 ± 0.039
5,S27T,0.026 ± 0.041
6,S27F,-0.153 ± 0.067
7,I29E,-0.621 ± 0.039
8,M14C,-0.063 ± 0.048
9,I46A,0.03 ± 0.033
10,R73M,-0.048 ± 0.042
11,G20M,-0.312 ± 0.046
12,E24M,-0.019 ± 0.039
13,A63Q,-0.907 ± 0.063
14,A63C,-0.03 ± 0.043
15,P11R,-0.288 ± 0.029
16,V15F,-0.072 ± 0.053
17,I18K,-0.279 ± 0.039
18,T54V,-0.044 ± 0.041
19,T54W,-0.269 ± 0.051
20,E48I,-0.162 ± 0.054
21,G55F,-1.17 ± 0.16
22,D12M,-0.144 ± 0.041
23,G34T,-0.268 ± 0.044
24,Q30L,-0.471 ± 0.036

# Variants of: B2
# Assay: as above
# Settings: Homo sapiens
row,Variant,abundance fitness
1,I9E,0.074 ± 0.1
2,I9D,-0.035 ± 0.1
3,I9V,0.011 ± 0.036
4,I9N,0.131 ± 0.1
5,I9M,0.062 ± 0.084
6,I9G,0.025 ± 0.036
7,I9W,-0.011 ± 0.063
8,I9A,0.005 ± 0.066
9,I9T,0.007 ± 0.06
10,I9C,0.067 ± 0.059
11,I9H,-0.243 ± 0.48
12,I9Y,-0.082 ± 0.1
13,I9L,0.03 ± 0.041
14,I9K,0.044 ± 0.11
15,I9P,0.046 ± 0.071
16,I9R,0.03 ± 0.058
17,I9Q,0.101 ± 0.14
18,E13M,-0.206 ± 0.1
19,E13Q,0.021 ± 0.067
20,E13G,-0.009 ± 0.042
21,E13K,-0.039 ± 0.1
22,E13L,-0.34 ± 0.05
23,E13R,0.078 ± 0.046
24,E13W,-0.331 ± 0.068

row,Variant,abundance fitness
1,E13H,-0.061 ± 0.16
2,E13N,0.02 ± 0.11
3,E13C,-0.152 ± 0.081
4,E13T,-0.016 ± 0.082
5,E13P,-0.059 ± 0.085
6,E13D,-0.001 ± 0.11
7,E13F,-0.349 ± 0.081
8,E13S,-0.039 ± 0.057
9,E13V,-0.241 ± 0.05
10,S1D,-0.027 ± 0.19
11,S1H,-0.103 ± 0.2
12,S1E,-0.581 ± 0.24
13,S1C,-0.178 ± 0.067
14,S1K,-0.717 ± 0.15
15,S1V,-0.354 ± 0.07
16,S1Y,-0.122 ± 0.093
17,S1M,-0.227 ± 0.15
18,S1W,-0.83 ± 0.12
19,S1F,-0.092 ± 0.084
20,S1R,-0.344 ± 0.1
21,S1G,-0.263 ± 0.054
22,S1L,-0.207 ± 0.065
23,S1P,-0.469 ± 0.15
24,S1T,-0.486 ± 0.14

row,Variant,abundance fitness
1,S1A,-0.395 ± 0.083
2,S4W,-0.161 ± 0.061
3,S4V,-0.056 ± 0.042
4,S4N,-0.038 ± 0.1
5,S4D,0.104 ± 0.093
6,S4I,-0.079 ± 0.073
7,S4M,0.002 ± 0.066
8,S4F,-0.151 ± 0.052
9,S4T,-0.006 ± 0.046
10,S4K,-0.154 ± 0.093
11,S4R,-0.155 ± 0.043
12,S4H,0.008 ± 0.11
13,S4G,-0.17 ± 0.032
14,S4C,-0.013 ± 0.068
15,S4L,-0.026 ± 0.041
16,S4Y,-0.076 ± 0.071
17,S4P,0.007 ± 0.045
18,S4A,-0.098 ± 0.039
19,G12C,-0.135 ± 0.32
20,G12D,-0.127 ± 0.33
21,G12A,-0.3 ± 0.29
22,G12V,-0.452 ± 0.2
23,L15Y,-0.252 ± 0.11
24,L15R,-0.977 ± 0.079

row,Variant,abundance fitness
1,L15H,-0.796 ± 0.31
2,L15G,-1.06 ± 0.13
3,L15Q,-1.03 ± 0.15
4,L15P,-0.983 ± 0.098
5,L15N,-0.613 ± 0.32
6,L15I,-0.061 ± 0.097
7,L15S,-0.235 ± 0.042
8,L15E,-0.67 ± 0.12
9,L15K,-0.572 ± 0.15
10,L15T,0.059 ± 0.048
11,L15V,0.039 ± 0.061
12,L15M,-0.049 ± 0.075
13,L15A,-0.034 ± 0.15
14,S6I,-0.148 ± 0.061
15,S6V,-0.171 ± 0.035
16,S6F,-0.091 ± 0.079
17,S6K,-0.126 ± 0.075
18,S6M,-0.123 ± 0.079
19,S6T,-0.079 ± 0.058
20,S6G,-0.041 ± 0.032
21,S6D,0.027 ± 0.069
22,S6W,-0.246 ± 0.056
23,S6Y,-0.206 ± 0.078
24,S6P,-0.07 ± 0.055

row,Variant,abundance fitness
1,S6H,-0.334 ± 0.26
2,S6R,-0.062 ± 0.034
3,S6Q,-0.069 ± 0.087
4,S6E,-0.046 ± 0.061
5,S6N,-0.033 ± 0.078
6,F8Y,-0.326 ± 0.14
7,F8I,-0.017 ± 0.075
8,F8C,-0.104 ± 0.071
9,F8Q,-0.196 ± 0.075
10,F8W,-0.016 ± 0.058
11,F8N,-0.021 ± 0.16
12,F8V,-0.063 ± 0.043
13,F8K,-0.137 ± 0.11
14,F8T,-0.08 ± 0.096
15,F8R,-0.059 ± 0.03
16,F8L,-0.135 ± 0.054
17,F8M,-0.102 ± 0.079
18,F8G,-0.103 ± 0.052
19,F8A,-0.055 ± 0.07
20,F8S,0.017 ± 0.058
21,F8D,-0.027 ± 0.12
22,F8H,0.015 ± 0.13
